Data from patent US20070243184A1, “PROPHYLAXIS AND TREATMENT OF ENTEROCOLITIS ASSOCIATED WITH ANTI-CTLA-4 ANTIBODY THERAPY” (priority 2005, published 2007).

Experiments:
[1] = tested on: patients; experiment: Clinical (antitumor) response in patients treated with MDX-010; assay type: in vivo, human
Description: These adverse events, likely reflect a loss of tolerance to some self antigens, or a hyper-response to bacterial antigens present in the gut or skin, and are therefore mechanism-related and may be directly linked to the clinical antitumor activity of MDX-010.
Of note, most responses observed to date have occurred by Week 12, even in patients with initial progression. As such, all patients who receive at least one dose of MDX-010 (BMS-734016) will, whenever possible, first return for the tumor re-staging assessment at Week 12 (and not before). After patients have been treated in the Induction Phase, they will either enter the Maintenance Phase or the Follow-up Phase, depending upon whether or not they meet eligibility criteria to enter the Maintenance Phase.

[2] = tested on: patients; experiment: Adverse events in patients treated with MDX-010 in clinical protocols; assay type: in vivo
Description: As noted above, these adverse events are an expected consequence of inhibiting CTLA-4 function. Immune-mediated events are adverse events associated with drug exposure and consistent with an immune-based mechanism of action. In terms of organ system involvement, these events have primarily involved the GI tract (diarrhea and colitis) or the skin (rash and pruritis). Diarrhea due to treatment with MDX-010 ranges from mild to very severe and may become life-threatening. Most cases of diarrhea and colitis have resolved with symptomatic treatment or corticosteroid intervention without known sequelae. Upper GI tract involvement including ileitis, duodenitis, and esophagitis has been observed.
To date, 6 patients in total have experienced gastrointestinal perforation or bleeding requiring colectomy following treatment with MDX-010. Two of these patients had melanoma (representing 0.6% of all patients with melanoma enrolled in MDX-010 related protocols), while four patients had renal cell carcinoma (representing 7% of all patients with renal cell carcinoma enrolled in MDX-010 related protocols). One of the patients with melanoma also received concomitant dacarbazine. After developing diarrhea, they initially appeared to improve on intravenous steroids, but their symptoms worsened after they were tapered off the steroids, and stool cultures were positive for Clostridium difficile, requiring aggressive medical treatment. The patient also developed laboratory evidence of disseminated intravascular coagulopathy (DIC), and required plasma and platelet transfusions. […] The patient's post-operative course was complicated by depression and malnutrition without evidence of systemic vasculitis. The patient developed pneumonia and subsequently died.
In the renal study (MDX010-011), one patient had GI bleeding, which was treated with a colectomy. The bleeding developed after a single dose of MDX-010. The other 3 events in the MDX010-011 study occurred after the patients received 4 to 6 doses of MDX-010. One patient with a bowel perforation was successfully treated with a colectomy and an ostomy. Subsequently, the bowel was re-functionalized. The patient was taken off steroids and has maintained a partial response to their malignancy. […] The diagnosis of colitis was only made on autopsy. The third patient with a bowel perforation continued to have diarrhea and was intermittently treated with steroids. Upon the diagnosis of a non-catastrophic perforation, the patient declined surgical intervention based on the overall progression of disease. The patient opted for hospice care and ultimately died. The fourth patient developed symptoms of colitis after a single dose of MDX-010, had only intermittent steroid treatment, and ultimately underwent a colectomy for uncontrolled bleeding. Of the 3 patients who received steroid therapy, the initiation of steroid therapy was delayed due to poor patient reporting of symptoms to the investigator, and the therapy was compromised by patient non-compliance with the recommended treatment.
The overall incidence of gastrointestinal perforations and/or colectomies is less than 2% of patients.
Skin toxicity in patients receiving MDX-010 has manifested as rash and pruritis, and, when biopsied, pleomorphic infiltrates have been noted in the skin. Some patients have developed vitiligo associated with MDX-010 administration. In our studies, there have been 7 cases of hypopituitarism reported to date, presumably due to immune-mediated hypophysitis. […] The effect of high-dose corticosteroid therapy on reversing pituitary abnormalities is unknown. Ocular inflammation, specifically Grade 2 or Grade 3 episcleritis or uveitis, has been reported in 6 patients; it has occurred in conjunction with GI symptoms in 4 of these patients. In addition, primary adrenal insufficiency has been noted in 3 patients. […]

[3] = including hypothalamic-pituitary suppression; cited from earlier work

Compound	time by which most responses observed to date have occurred ([1]; even in patients with initial progression) [Week]	patients developing an autoimmune-like adverse event who also experienced a clinical response ([1]; in one of the studies) [%]	overall incidence of gastrointestinal perforations and/or colectomies ([2]; all patients)	patients in total who experienced gastrointestinal perforation or bleeding requiring colectomy ([2]; following treatment with MDX-010, all protocols, to date) [patients]	ocular inflammation (Grade 2 or Grade 3 episcleritis or uveitis) reported ([2]; human, in vivo) [patients]	primary adrenal insufficiency noted ([2]; human, in vivo) [patients]	ocular inflammation occurring in conjunction with GI symptoms ([2]; of the 6 patients with ocular inflammation) [patients]	gastrointestinal perforations or colectomies in patients with breast or prostate cancer ([2]; patients with breast or prostate cancer)	gastrointestinal perforation or bleeding requiring colectomy, share of all patients with melanoma enrolled ([2]; patients with melanoma in MDX-010 related protocols) [%]	gastrointestinal perforation or bleeding requiring colectomy, share of all patients with renal cell carcinoma enrolled ([2]; patients with renal cell carcinoma in MDX-010 related protocols) [%]	cases of hypopituitarism reported ([2]; presumably due to immune-mediated hypophysitis, to date) [cases]	adverse effects versus systemically-acting corticosteroids [3]
MDX-010: human monoclonal anti-CTLA-4 antibody (Medarex, Inc.), corresponds to monoclonal antibody 10D1; also referred to as ipilimumab	≤ 12	~45	less than 2 % of patients	6	6	3	4	no reported gastrointestinal perforations or colectomies	0.6	7	7	–
CCCC1O[C@@H]2C[C@H]3[C@@H]4CCC5=CC(=O)C=C[C@]5(C)[C@H]4[C@@H](O)C[C@]3(C)[C@]2(C(=O)CO)O1 (stereo partly drawn) [Budesonide, budesonide]	–	–	–	–	–	–	–	–	–	–	–	fewer adverse effects
